Results published in the DeepSol protein solubility set.

Assay: soluble on expression in E. coli; label from the status in PepcDB or PDB records

Sequence | soluble on expression in E. coli
MGSDKIHHHHHHMKKIHGKVMVERHHLEILRAVERQGSLTAAAEQLHLTQSALSHAIRKLEQQLGTSVWLREGRQLRLTQAGHQLLALANRLLPQFEHAEMQIHQIAQGQRGSLRVGMECHPCYQWLLKVVGPYLQQWPDVDVDVKQEFQFGGMGALFGHDIDLLVTPDPLHKPGVRFEPVFDYEQVLVVSEDHSLADEKWVEPHQLEKETLITYPVAVERLDIFTRFFLPAHTAPARHKTIETTDIMLQMVAAGRGVSALPRWLVDDYARNMPIRALKLGQQGMPKQIFLGFRERDEAVDYLNAFVKLARSIRWN | not soluble
MALEKLLKVQERLWAPEDLRKKANLQDYAAEYRKSLEDPEGFWGAWARRFHWEKPFEKVLEWTLPEHRWFLGGTTNAVYNALERNVERGLRNKVALLYLAEDGREEKLTYGELLDRVRRLATGLRRLGVGKGDRVVIYMPLTLEGVLAMLATAYIGAIHSVVYAGLGVSALRERILDAQAKLLIAGDVSFRRGKGVDLRSIAEEAIRDLPLKVVWFQRAYKAELAEGHYDFHELLWGNPPEARAEMVDAEHPLFILYTSGSTGKPKGVVHVHGGYMVGTTYHLRTFFDVKDEDVFWATSDIGWIVGHSYIVYAPLLEGITSVLREGAPDHPDPGALWQAVERYRVNVMFTAPTAVRMFMKYGPEWPRKYDLSSLRLLAVAGEPLNPEALKWAYEHLVDGGRRGFVADNWWQTELGGPTLGTPLVLPAKPGFAGVALPGVEAEVVDEEGRPVPPGQGGLLVLKRPFPHMMRTVWGNHERYLRYWQEVPGGVYASGDVASKDEEGYFSVLGRADDVLNVAGHRIGTADVESALVSHPAVAEAAVIGVPDPLKGEAIKAFVVLRLGQTPSEELKEALVQHVRRELGPIATPSEVVFLDKLPKTRSGKILRRLLKAQALGKDPGDLSTLEE | soluble
MAHHHHHHMSFCDFVVVTNNSVEIFKISFDNLIITPIKKHFIKSKHCWYDEKSSYICLLSANKSNVILPYLLSNNNVIKLSKIELNILKNDNINKNDIEIITLYNETYCIHKDFKNGRISFRCLSSTIYFDYVLDLFYNGVIETFSLDNLFGVFNHTNQYVYLFDIKYNKKKTTIHSFDDNNNHTINISYLTTPKQFKTQINFNHMAFEPYNLLIDNHYGNVYKVKVDYDVLMLQICQHFSNLVRT | soluble
LRYNLWFGVYDGKEIKLSENFEESFLKAENPSPLPFNVSEVGAKALGKDYYRILRKTALAVSEKMVEKELRREDRYVVALVKALEEIDESINMLNEKLEDIRAVKESEITEKFEKKIRELRELRRDVEREIEEVMEKIAPNMTELVGAKVAAKLLERAGSMERLVRLPASKIQVIGAEKSLYKAFARMKKGKKAKIPKHGIIFLHPFIRTLPKAKRGKMARFLAAKLAIAAKIDYFRGEIDESLYESIRRRYEELRRK | soluble
MGSDKIHHHHHHMHISNMDGLDILSLKILVSLYENKSATYVSKALDIPAPKISRSLKNLREIFGDELFIRRKYGLFPNEFATHLYPIAKEAIECTDKFHKARAANANLVKTHIEIAAPGLIAYAFPKALMQAIKDEQKLMHINITPWSMHTTQDIINGDTTLGICCNKSTADVAAFGDKLLTTTLQSMDKVYLLASRNHPIFKREITLETIAEYPYVNTDLGNPSSKLSPYQEFCLKSNIKLNTEITITSISSLFEYLGESQALSLLPYRVVYEMVSDVAELHTCQLSQLEAERLYAHAEAPTIFLVQKNQPNKVNDDLVWLSGQIKKIVDHII | not soluble
MGSDKIHHHHHHMKHLSLEALRSFSAVIELGSMTLAGERMGRSQPAISLQLKKLEQQLGVELLTRQGSGFALTADGDVLFDYAQRMLALNDQAWAQFEPQQVSGKVRLGITSEFASSLLPKVLGQFAQVYPQVTLQVTSALSKDLLSGLGQQFDIILALREQTNKSDVLIQREELVWVGLPGLLEQPGWPMVVAPEGCIYRRRAEQSLQRAHQPYRITYTNTDFSGLTAALNSGLGITVLAKSTVPKDIPILESFSDNKPLPNPGSVNVIMRLAGGASSAASQLADYLKARI | not soluble
RYISESGSDKVQFLISTNIGEPLRPLEKIVSGGELSRIMLSMKTVFVNKDKIPSVIFDEIDTGISGRIAERVADKMYAVSENHQVFCVTHLPQIACMSDTQFMV | not soluble
MSFLSIPINEKSLSFIKNNFQAQIQALEQFYPIIKNALNLGLNPSSIKFGGGTALSMYYFQHRLSFDMDLFVNDAQCLGFFSPKLWIDNCSHFDSTRYIDQHNHIGVTNKDNIKIDVLVDYASNEGYVDNSKKIFAFDIYIESLENIIAKKITFRKTDNKTRDIFDIAVALHNDNNLFDKLLSSQKITKQDLLTLQNSLQELDKKRYSIEIDMVEPISHYKDLSLSAYDFLIDKIDQIKTATYSNSHDNADDLDNSNEYTPTPKRRR | not soluble
MAHHHHHHMAVLVKNYEASLVDMAVQDFIKLGIDGVYTTMKTVVSFEYIFNFTSHMRNLHKYSTNFLELQINDHNKECVTNILQNLTMENIRKSSSASIKAGFEFLNALNDDIKKKHFSENVNYMVMVTITWDIHGNSGVSPNEPFSILCYIKCLPKHGSHVQIDIMCGERKTPNIKYSNVFDVRNKMLKLKSEDSHEVVLYNEKEEITEGLTCNFFCFFNDTLYTANDELVLKGTMREQIIHICEEEGVKLKKEAISIRDVGRFEFCFICSTTRNIIPVKKIILCSENKAEFEKDVHHPVLVKLQQKLREAVEKKKEKYEAYVSAALGV | not soluble
MSLVERARLAEGGGWDCHFHVFDASRYTLAAGSAYQPEDASLAAFRGVCRARGIGRAVLVHPSVYGADHSSYEDALAANGDWLRGVAVVYPDEATTPDARIEHWDLLGTAGTRINRLFPGAPQHPERIVERVKPFGWHVQVLTDIVEDIGLVRRIAARDVPVVVDHFGHHPHAQLLRSAGWQDLIALVREGAAWVKLSAPYRVGAQGPAWPGAQALVDQLVQANPRQLVWGSDWPHPPDHRHPFPAPDQAAIGATIAQWLPDAQLRRQVMELNPLRLYGGTRAAGREGHHHHHH | soluble
MGSDKIHHHHHHMKILVVGAGAVGGYFGARLAEKGEDVTFLVRERRFEELRAGLQVKSLHGDITCSPRLIRTGEKGTFDVILLSTKAYHLEQVLEDIEPFVATDTYILPLLNGMAHLKQLEQHFGAERVLGGLCFIESTLDGKGHIVQTSPSHHLLFGPLPGTRTDRLEELKQHLTGTAAPINYSDTITRDMWNKYLFITTFSGVTSLFRSAIGPIRSQEEGMMMIRRLATEAKEAMERQGAVFSDGIEQIQQQQIAQMDETMKSSLQRDMEKGNEVESAHLFGTLLSKDEATQVMLPAIYANLKIYRMSRKDV | not soluble
GPGSMNPSKVVQGTPNSVEWDPRNPPDTPFFTETTAVERSRIPTEYIRRMEEATRLYAMHREGRHALHTACQIASWTVATQCCWLCVGVWLTVRGYRHANPAHSFVSGMTSNKVFCRVFTPIPVLGLTMMGVTAAQLPRDVKVLITAREGRMEEENCMKSAFDQCMAALAEGRLAMGKEGILTA | not soluble
MGSDKIHHHHHHMSHKPSAEDKEKSKLTKEEWRDYTKTVWSIANTSHEDHPAVFPLEIPHRLTKLFSFYGETVLDPFAGTGTTARAAIPLGRRAICVDQNADYTEIIKKDCAKLRNGHGADFEPLVVVNGDSRKMDFVESDSVGLVVTSPPYWNKADYGDSKRNLGTIERYSDFIEGIRPVFEECYRILTPGRKLCVVTANVNQHTDHGLLTFPLATDFAVLLRQIGFVMINEIIWSKDATGGKWGSYGAQRPIFGSYPYPPNFLFKNVHEYILIFAKPPRTKTTGPKVQPYKKLVEGLTGGIMEPDSLPAYAQAFRQQ | not soluble
